The numbers were not newly measured in paper PMC4526808, which cites them from elsewhere.

Like-named read-outs stand apart in the source and are kept apart here.

Data set [1] concerns the target PKA RIIα D/D domain (UniProt P13861).
Data set [2] shares this target. The source holds these as a separate data set.
In data set [3] the target is PKA RIα D/D domain (UniProt P10644).
For data set [4] the target is unchanged. This is another data set of the same source.
In data set [5] the target is PKA RIIα D/D domain (UniProt P13861). This is another data set of the same source.

Sequence of UniProt P13861 (P13861 2-45): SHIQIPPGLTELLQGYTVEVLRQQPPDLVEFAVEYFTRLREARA
Sequence of UniProt P10644 (P10644 1-61): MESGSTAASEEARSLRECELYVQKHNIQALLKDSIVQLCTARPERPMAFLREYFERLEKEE

On to AKAP-is, for which, in the data set with PKA RIIα D/D domain [1], the Kd (commonly the equilibrium constant for the complex coming apart) is 0.4 nM.
In the case of Ht31, the Kd with PKA RIIα D/D domain [2] was 2.2 nM; with PKA RIα D/D domain [3] it was 1300 nM.
For the substance RIAD, the Kd with PKA RIα D/D domain [4] was 1 nM; with PKA RIIα D/D domain [5], 1800 nM.
